# Substitutions are numbered along the chain they refer to.
# B1: HuMab 37_(L-63) (cloned, IgG1) (antibody, V domains shown)
# VH: EVQLVQSGGGLVHPGGSLRLSCAGSGFTFSRYALHWVRQAPGKGLEWVSAIGIGGGTFYADSVKGRFTISRDNAKNSLYLQMNSLRAEDMAVYYCARDTYYDFFDAFDIWGQGTMVTVSS
# VL: DIQMTQSPSSLSASVGDRVTITCRASQGISSWLAWYQQKPEKAPKSLIYAASSLQSGVPSRFSGSGSGTDFTLTISSLQPEDFATYYCQQYDSYPLTFGGGTKVEIK
# B2: HuMab 33_(L-112) (antibody, V domains shown)
# VH: EVQLVESGGGLVQPGGSLRLSCAASGFTFSRYWMSWVRQAPGKGLEWMANIKQDGSETHYVDSVKGRFTISRDNAKNSLYLQMNSLRAEDTAVYYCAIGDYWGQGTLVTVSS
# VL: B1 VL with G28D, D92K
# B3: HuMab 11_(L-80) (antibody, V domains shown)
# VH: QVQLVESGGGVVQPGRSLRLSCAASGFTFSNYGIHWVRQAPGKGLEWVAIIWHDGSNSYYVDSVKGRFTMSRDNSKNTVYLQMNSLRAEDTAVYFCARIIGGAFDIWGQGTMVTVSS
# VL: B1 VL with D92N, L96I, G100Q, K103R, V104L
# B4: HuMab 56c (antibody, V domains shown)
# VH: QVQVVQSGAEVKKPGSSVKVSCKASGGTFSSYAISWVRQAPGQGLEWMGRIIPILGTAKYAQKFQGRVTIIADKSTSTAYMELSSLRSEDTAVYYCARDQDYYGMDVWGQGTTVTVSS
# VL: B1 VL with L11V, Q38H, E41G, S46L, Y91T, D92N, S93N, Y94F, L96W, G100Q
# B5: HuMab 16_(L-40) (antibody, V domains shown)
# VH: EVQLVQSGGGLGHPGGSLRLSCAGSGFTFSSYSMHWLRQAPGKGLKWVSAIGTAGGTYYADSVKGRFTISRDNAKNSFYLQMNSLRAEDMAVYYCAREYFFGSGNYGYWGQGTLVTASS
# VL: not shown
# B6: HuMab 22c (antibody, V domains shown)
# VH: QVQLVESGGGVVQPGRSLRLSCAASGFTFRSYGMHWVRQAPGKGLEWVTLIWYDGSNKYYADSVKGRFTISRDNSKNTLYLQMNSLRVEDTAVYYCAREGFNWDAFDIWGQGTMVTVSS
# VL: EIVLTQSPGTLSLSPGERATLSCRASQSVRISYLAWYQQKPGQAPRLLIYGTFSRATGIPDRFSGSGSGTDFTLTISRLEPEDFAVYYCQQYGSSMYTFGQGTKLEIK
# B7: HuMab 155c (antibody, V domains shown)
# VH: EVQLVQSGAEVKKPGESLKISCKGSGYSFTSYWIGWVRQMPGKGLEWMGIIYPGDSDTRYSPSFQGQVTISADKSISTAYLQWSSLKASDTAMYYCARQGSGWYGNYFDYWGQGTLVTVSS
# VL: B6 VL with V29F, R30S, I31R, S32G, T52A, F53S, A56V, G93D, M96P
# Molecular target: T1, hSOD1-A4V-myc (Homo sapiens, UniProt P00441, point mutant)
# T1 construct: human SOD1 with the ALS mutation A4V; source: HEK-293T/17, transiently transfected (pcDNA), in lysate; not shown: myc, C-terminal, kept
# Assay: co-IP; soluble lysate of transfected HEK-293T/17 cells (PBS + 0.1% Triton X-100) immunoprecipitated with 2 µg HuMab and protein A sepharose; immunoblot with anti-myc 9E10
# Details: one partner purified
row,binding result,Binder
1,binds,B1
2,binds,B2
3,binds,B3
4,binds,B4
5,binds,B5
6,binds,B6
7,binds,B7

# — PMC3629177 (PLoS ONE, 2013)
